The target in this test is TNF-α (UniProt P01375). Kind of test: cell-based or functional assay.

A value given as a limit tells only on which side of the number the result lay.

UniProt P01375, sequence (P01375 77-233 limits assumed): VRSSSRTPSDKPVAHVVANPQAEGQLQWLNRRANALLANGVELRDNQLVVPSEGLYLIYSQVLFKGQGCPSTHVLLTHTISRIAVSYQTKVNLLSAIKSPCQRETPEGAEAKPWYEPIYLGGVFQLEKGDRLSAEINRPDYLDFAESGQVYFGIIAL
recombinant human TNFR:Fc fusion protein (TNFR-II:Fc), protein A purified, not HIC-fractionated, sequence (chain): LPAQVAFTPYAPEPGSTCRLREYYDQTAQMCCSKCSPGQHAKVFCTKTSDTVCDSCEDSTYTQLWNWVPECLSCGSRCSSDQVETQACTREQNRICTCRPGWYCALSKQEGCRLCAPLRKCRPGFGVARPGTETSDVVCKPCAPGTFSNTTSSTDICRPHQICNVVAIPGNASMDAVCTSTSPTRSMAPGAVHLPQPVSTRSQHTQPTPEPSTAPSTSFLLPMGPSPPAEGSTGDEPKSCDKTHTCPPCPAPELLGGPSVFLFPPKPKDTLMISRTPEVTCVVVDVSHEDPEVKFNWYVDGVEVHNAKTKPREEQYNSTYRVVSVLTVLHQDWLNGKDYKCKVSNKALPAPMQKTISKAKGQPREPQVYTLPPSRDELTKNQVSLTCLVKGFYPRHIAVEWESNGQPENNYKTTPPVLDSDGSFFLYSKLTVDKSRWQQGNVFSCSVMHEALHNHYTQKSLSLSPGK

For the substance “TNFR:Fc, HIC peak 2 fraction (Fc fusion)”, the bioactivity (A375 assay; HIC with sodium acetate gradient) came out at 2.71e+06 U/mg and the bioactivity (A375 cell killing neutralisation assay), compared to unfractionated material was determined as 117%.
Turning to “recombinant human TNFR:Fc fusion protein (TNFR-II:Fc), protein A purified, not HIC-fractionated”, the Bioassay 10^6 units/mg (n = 2); VA12 cells, production at 28° C., IGF-1 is 2.07e+06 units/mg; the Bioassay 10^6 units/mg (n = 2); VA12 cells, production at 32° C., IGF-1 was 1.62e+06 units/mg; the Bioassay 10^6 units/mg (n = 2); VA12 cells, production at 34° C., IGF-1 is 950000 units/mg; the Bioassay 10^6 units/mg (n = 2); VA12 cells, production at 37° C., IGF-1 amounted to 490000 units/mg.
For the substance “TNFR:Fc, HIC peak 3 fraction (Fc fusion)”, the bioactivity (A375 assay; HIC with sodium acetate gradient) is less than 340000 U/mg and the bioactivity (A375 cell killing neutralisation assay), compared to unfractionated material was 11%.
